Results on 14 molecules are retold here after US20050059087A1 (Amgen, published 2005).

Substitutions are numbered along the chain they refer to. Names and notes keep the numbering of the source. No end group written: not given here.

For experiment [1], the target named is T1, EGFRvIII peptide-OVA (PEP3 14-mer conjugated to ovalbumin) (human, also: conjugated to OVA, chemistry not given here).
T1 construct: also called VIII-pep-OVA; muEGFr
T1 peptide: LEEKKGNYVVTDHC
Briefly: XenoMax screening.

Experiment [2] addresses T2, EGFRvIII-rabbit Fc fusion protein (human; rabbit, UniProt P00533 298-645).
T2 construct: made in 293F cells; also called EGFRvIII-RbFc; EGFRvIII-Rab Ig Fc fusion protein; not shown: rabbit IgG Hinge-CH2-CH3 (721 bp fragment)
Briefly: ELISA, minilipofection supernatant titrated 1:2 on EGFRvIII-Rab Ig Fc fusion protein (1.5 ug/ml). As for the experimental part: The secretion ELISA tests were performed as follows. […] The plates were washed five times with dH₂O. Recombinant antibodies were titrated 1:2 for 7 wells from the undiluted minilipofection supernatant. The plates were washed five times with dH₂O. A goat anti-human IgG Fc-specific HRP-conjugated antibody was added at a final concentration of 1 μg/mL for 1 hour at RT for the secretion plates and binding plates detected with 1 μg/ml Rb anti Hu Fc for 1 hour at room temperature. The plates were washed five times with dH₂O. The plates were developed with the addition of TMB for 30 minutes and the ELISA was stopped by the addition of 1 M phosphoric acid. Each ELISA plate was analyzed to determine the optical density of each well at 450 nm.
On the technique in general: In an ELISA, binding on a coated surface is turned into a signal by an enzyme label.

The target in experiment [3] is T3, EGFRvIII, full length, expressed by transfected cells (NR6 M, H1477, 300.19/EGFRvIII) (human, UniProt P00533 298-1210). Briefly: cell-based or functional assay.
Experiment [4] concerns the target T3, EGFRvIII, full length, expressed by …. Kind of experiment: FACS on NR6 M cells, antibody at 0.25 µg/ml with SS Alexa anti-human IgG Fab, 37° C. for 1 hr, no glutathione (total cell-associated fluorescence). As for the experimental part:
XenoMax derived IgG1 recombinant antibodies were expressed, purified and quantitated as described previously. Antibodies were further assayed for their ability to internalize the EGFRvIII receptor in NR6 M cells. […] The cells were washed with cold 10% FCS in PBS and secondary antibody (SS Alexa antihuman IgG Fab) at 3 μg/ml Fab was added and incubated for 7 mins on ice. The cells were washed with cold 10% FCS in PBS once and then resuspended in cold media. Next, two sets of the triplicate were incubated at 37° C. and the remaining set was incubated at 4° C. for 1 hr. After that the cells incubated at 4° C. and one set of the cells incubated at 37° C. were treated with glutathione (as previously mentioned) for 1 hr on ice. Then the cells were washed and resuspended in 100 μl of cold 1% FCS in PBS and analyzed by FACS. The % internalization was calculated from the geometric mean obtained from the FACS analysis [(mean at 37° C. with glutathione—mean at 4° C. with glutathione)/(mean at 37° C. without glutathione—mean at 4 C with glutathione)].

Experiment [5] concerns the target T4, Pep-3, NH2-LEEKKGNYVVTDHG-OH (human).
T4 construct: Free peptide used in Biacore and KinExA (MW 1590 Da)
T4 peptide: H-LEEKKGNYVVTDHG-OH
Kind of experiment: Biacore 2000 SPR, mAb immobilised, pep-3 analyte. From the text:
The first step in these examples involved the immobilization of 5,600 resonance units (RU) to 8,000 RU of each mAb tested to one flow cell (Fc) of a CM5 sensor chip using standard EDC/NHS coupling chemistry. […] Three CM5 sensor chips were used in total to immobilize all mutant mAbs with a unique mAb immobilized to each flow cell. […] Biacore 2000 optical biosensors were used for all studies.
In general terms: SPR reads the build-up and loss of mass on a sensor chip optically.

Experiment [6] addresses T4, Pep-3, NH2-LEEKKGNYVVTDHG-OH. Kind of experiment: Biacore 2000 SPR, mAb immobilised, pep-3 analyte, 23 C. As for the experimental part: Standard EDC/NHS and carbohydrate coupling was used to covalently immobilize mAbs to a CM5 sensor chip. To minimize mass transport and crowding mAbs were immobilized at levels that gave a maximum antigen binding response (Rₘₐₓ) of no more than 50-100 RU. A reference flow cell on each chip was activated and blocked with no mAb immobilization to serve as a control.
All Biacore kinetic experiments were conducted at 23° C. […] Antigen samples were randomly injected over the biosensor surface in triplicate at 100 μL/min. Several buffer blanks were injected intermittently over the course of an experiment for double referencing. Each pep-3 concentration and blank were injected for 90 seconds. Dissociation was followed for 13 to 180 minutes.
All Biacore sensorgrams were processed using Scrubber software (Version 1.1f, BioLogic Software, Australia). Sensorgrams were first zeroed on the y-axis and then x-aligned at the beginning of the injection. Bulk refractive index changes were removed by subtracting the reference flow cell responses. The average response of all blank injections was subtracted from all analyte and blank sensorgrams to remove systematic artifacts between the experimental and reference flow cells. CLAMP biosensor data analysis software (Version 3.40, BioLogic Software, Australia) was used to determine kₐ and kd from the processed data sets. Data from all flow cells were globally fit to a 1:1 bimolecular binding model that included a mass transport term. […] The KD was calculated from the quotient kd/kₐ.

B1: SC-EGFRvIII-XG1-250 (antibody, V domains shown)
VH: EGQLLESGGGWVQPGESLRLSCAASGFTFSSYAMSWVRQAPGKGLEWVSAISGSGGSTNYADSVKGRFTISRDNSKNTLYLQVNSLRVEDTAVYYCAGSSGWSEYWGQGTLVTVSS
VL: DIQMTQSPSSLSASVGDSVTITCRTSQGIRKNLGWYQQKPGKAPKRLIYAASSLQSGVPSRFSGSGSGTEFTLTISRLQPEDFATYYCLQHHSYPLTFGGGTRVEIR
notes: also called SC250; sc250
As to B1, the binding result in experiment [1] is listed as “binds”. Besides, the “Titer, antigen binding” value in experiment [2] is > 64 reciprocal dilution. Besides, in experiment [3], the “% internalization” value was 16.7%; the “FACS Geometric mean, With glutathione 4° C.” value stood at 4.84 geometric mean; the “FACS Geometric mean, With glutathione 37° C.” value is 8.07 geometric mean. In addition, the “FACS Geometric mean (without glutathione, 37° C.)” value in experiment [4] is 24.1 geometric mean.

B2: SC-EGFRvIII-XG1-318 (antibody, human IgG1, V domains shown)
VH: QVQLVESGGGVVQPGRSLRLSCVASGFTLSSYGMHWVRQAPGKGLEWVAVTSYDGSKKDYADSVKGRFTISRDNSKNTLYLQMNSLRAEDTAVYYCVSEGYCDSSSCYKYYYYGMDVWGQGTTVTVSS
VL: DIVMTQSPLSLPVTPGEPASISCRSSQSLLYRNGNNYLDWYLQRPGQSPQLLIYLGSNRASGVPDRFSGSGSGTDFTLKISRVEAEDVGVYYCMQALQTPRTFGQGTKVEIK
notes: XenoMax-derived; also called 141A10
As for B2, the “Titer, antigen binding” value in experiment [2] was 64 reciprocal dilution.

B3: SC-EGFRvIII-XG1-333 (antibody, human IgG1, V domains shown)
VH: B2 VH with P41L, S105T
VL: B2 VL
notes: XenoMax-derived
Take B3: the “Titer, antigen binding” value in experiment [2] is > 64 reciprocal dilution.

B4: SC-EGFRvIII-XG1-211 (antibody, V domains shown)
VH: B2 VH with V64A, D103S
VL: B2 VL
notes: also called SC211; sc211
B4: the “Titer, antigen binding” value in experiment [2] was > 64 reciprocal dilution. Also, in experiment [3], the “% internalization” value is 21.6%; the “FACS Geometric mean, With glutathione 4° C.” value came to 4.78 geometric mean; the “FACS Geometric mean, With glutathione 37° C.” value is 8.23 geometric mean. Also, the “FACS Geometric mean (without glutathione, 37° C.)” value in experiment [4] amounted to 20.8 geometric mean.

B5: SC-EGFRvIII-XG1-123/124 (antibody, human IgG1, V domains shown)
VH: B2 VH with V23A, T51M, K58E, K76E, D103S, S105R
VL: B2 VL with R44K, K79N, V90H
notes: also called 129A7
For the molecule B5, in experiment [2], the “Titer, antigen binding” value is > 64 reciprocal dilution.

B6: SC-EGFRvIII-XG1-342 (antibody, human IgG1, V domains shown)
VH: B2 VH with S105T
VL: B2 VL
notes: XenoMax-derived; also called 124D4
Consider B6, for which the “Titer, antigen binding” value in experiment [2] was > 64 reciprocal dilution.

B7: 13.1.2 variant L99H-9.2 (antibody, V domains shown)
VH: QVQLVESGGGVVQPGRSLRLSCAASGFTFSSYGMHWVRQAPGKGLEWVAVIWYDGSNKYYVDSVKGRFTISRDNSKNTLYLQMNSLRAEDTAVYYCARDGWQQLAPFDYWGQGTLVTVSS
VL: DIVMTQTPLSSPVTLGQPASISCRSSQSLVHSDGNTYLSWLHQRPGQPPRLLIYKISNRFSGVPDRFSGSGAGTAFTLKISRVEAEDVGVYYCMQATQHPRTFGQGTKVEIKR
notes: also called Leu99His; 99His
As for B7, in experiment [5], the Kd (usually the concentration at which binding is half-saturated) was determined as 0.395 µM; the koff (commonly a measure of how fast the partners let go of each other) amounted to 0.033 s⁻¹; the on-rate (kon) – broadly, a measure of how fast the partners come together – was 83400 M⁻¹ s⁻¹.

B8: 13.1.2 variant N35G-3.1 (antibody, V domains shown)
VH: B7 VH
VL: DIVMTQTPLSSPVTLGQPASISCRSSQSLVHSDGGTYLSWLHQRPGQPPRLLIYKISNRFSGVPDRFSGSGAGTAFTLKISRVEAEDVGVYYCMQATQLPRTFGQGTKVEIKR
notes: also called Asn35Gly; 35Gly
With B8, in experiment [5], the Kd worked out at 0.204 µM, the koff amounted to 0.03 s⁻¹ and the kon was found to be 150000 M⁻¹ s⁻¹.

B9: 13.1.2 variant L217Q-10.1 (antibody, V domains shown)
VH: B7 VH with L104Q
VL: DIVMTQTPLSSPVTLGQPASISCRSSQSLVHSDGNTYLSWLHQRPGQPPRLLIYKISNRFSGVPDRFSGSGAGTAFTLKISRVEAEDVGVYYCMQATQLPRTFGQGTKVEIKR
notes: also called Leu217Gln; 217Gln
As for B9, in experiment [5], the dissociation constant Kd is 0.092 µM, the koff worked out at 0.019 s⁻¹ and the kon was 204000 M⁻¹ s⁻¹.

B10: 13.1.2 variant Y172R-1.2 (antibody, V domains shown)
VH: B7 VH with Y59R
VL: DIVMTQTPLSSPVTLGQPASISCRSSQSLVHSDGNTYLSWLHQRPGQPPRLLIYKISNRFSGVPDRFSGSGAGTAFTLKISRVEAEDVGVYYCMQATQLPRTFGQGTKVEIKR
notes: also called Tyr172Arg; 172Arg
With B10, in experiment [5], the Kd was determined as 0.927 µM, the koff amounted to 0.076 s⁻¹ and the kon is 82200 M⁻¹ s⁻¹.

B11: 13.1.2 variant L217N-2.1 (antibody, V domains shown)
VH: B7 VH with L104N
VL: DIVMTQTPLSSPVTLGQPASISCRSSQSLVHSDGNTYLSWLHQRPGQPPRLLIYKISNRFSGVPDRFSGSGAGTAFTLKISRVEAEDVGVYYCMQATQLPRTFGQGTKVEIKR
notes: also called Leu217Asn; 217Asn
As for B11, in experiment [5], the dissociation constant Kd was determined as 0.185 µM, the koff turned out to be 0.04 s⁻¹ and the kon is 220000 M⁻¹ s⁻¹.

B12: AB-EGFRvIII-XG1-095 (antibody, V domains shown)
VH: QVQLQESGPFLVKPSQTLSLTCTVSGGSISSGGYYWSWIRQHPGKGLEWIGFIYYRGNTYYNPSLKSRVTISVDTSKNQFSLKLSSVTAADTAVYYCARDGYCSRTGCYGGWFDPWGQGTLVTVSP
VL: DIVMTQTPLSSPVTLGQPASISCRSSQSLIHTDGNIYLSWLQQRPGQPPRLLIYKISNRFSGVPDRFSGSGAGTDFTLKISRVEAEDVGVYYCMQGTQFPITFGQGTRLEIK
notes: also called SC95; sc95
As to B12, the binding result in experiment [1] is listed as “binds”. Besides, in experiment [3], the “% internalization” value was found to be 72.4%; the “FACS Geometric mean, With glutathione 4° C.” value amounted to 5.13 geometric mean; the “FACS Geometric mean, With glutathione 37° C.” value is 17.8 geometric mean. In addition, in experiment [4], the “FACS Geometric mean (without glutathione, 37° C.)” value was determined as 22.6 geometric mean. In experiment [6], this molecule came in with a dissociation constant (Kd) of 0.066 µM, an off-rate (koff) of 0.0099 s⁻¹ and a kon of 149000 M⁻¹ s⁻¹.

B13: SC-EGFRvIII-XG2-150 (antibody, human IgG1, V domains shown)
VH: QVQLQQSGPGLVKPSQTLSLTCAISGDSVSSYSSAWNWIRQSPSRGLEWLGRAYHRSRWYYEYAVSVKSRINITPDTSKNQFSLQLNSVTPEDTAVYYCARGSRFDYWGQGTLVTVSS
VL: B12 VL with I30V, T32R, I36T, V90I, Y92F, Q95H, G96T, I101W, L109V
notes: XenoMax-derived from an XMG2 mouse; also called sc150; 182D5
In the case of B13, the “Titer, antigen binding” value in experiment [2] was > 64 reciprocal dilution. Further, in experiment [3], the “% internalization” value was 20%; the “FACS Geometric mean, With glutathione 4° C.” value amounted to 4.66 geometric mean; the “FACS Geometric mean, With glutathione 37° C.” value was 7.78 geometric mean. Also, the “FACS Geometric mean (without glutathione, 37° C.)” value in experiment [4] came to 20.3 geometric mean.

B14: SC-EGFRvIII-XG2-170 (antibody, human IgG1, V domains shown)
VH: QVQLQQSGPGLVKPSQTLSLTCAISGDSVSSNNAAWNWIRQSPARGLEWLGRTYYRSKWYNDYVVSVKSRITINPDTSKNQFSLQLNSVTPEDTAVYYCVRATAFDYWGQGTLVTVSS
VL: AIVLTQTPLSSPVTLGQPASISCRSSQSLVHRDGNTYLSWLQQRPGQPPRLLIYKISNRFSGVPDRFSGSGAGTDFTLKISRVEPDDVGVYYCMHTTQLPWTFGQGTKVEIK
notes: XenoMax-derived from an XMG2 mouse; also called SC170; sc170
Consider B14, for which the “Titer, antigen binding” value in experiment [2] was > 64 reciprocal dilution. Besides, in experiment [3], the “% internalization” value was 20.1%; the “FACS Geometric mean, With glutathione 4° C.” value was 4.67 geometric mean; the “FACS Geometric mean, With glutathione 37° C.” value is 7.75 geometric mean. Moreover, the “FACS Geometric mean (without glutathione, 37° C.)” value in experiment [4] worked out at 20 geometric mean.
